The results in this text go back to publication PMC2913146 (Molecular cell, 2010).

The series deals with the molecule itself. Briefly: crystal structure.

B1: PoxA (enzyme)
chain: MSETATWQPSASIPNLLKRAAIMAEIRRFFADRGVLEVETPCMSQATVTDIHLFPFETRFVGPGHSQGINLYLMTSPEYHMKRLLAAGCGPVFQLCRSFRNEEMGRHHNPEFTMLEWYRPHYDMYRLMNEVDDLLQQVLDCQPAESLSYQQAFQRHLEIDPLSADKTQLREAAAKLDLSNIADTEEDRDTLLQLLFTMGVEPHIGKEKPTFIYHFPASQASLAQISTEDHRVAERFEVYYKGIELANGFHELTDAREQQQRFEQDNRKRAARGLPQQPIDQNLLDALAAGLPDCSGVALGVDRLVMLALGAESLADVIAFTVDRA
As for B1, the binding result is given as “binds”.
